Data reported in patent publication US20180258158A1 (Bristol-Myers Squibb, published 2018).
Where two headings read alike, the source gives them in different places.

Key:
[1] = target: T1, human serum albumin (HSA), full length (human, UniProt P02768 25-609); assay: SPR off-rate ratio to parent ADX_7016_A01, HSA, 25 C
T1 construct: mature; Immobilized on CM5 chip (SPR) or coated on plates (ELISA)
Procedure: (§1) Measurements were conducted by SPR and ELISA. SPR was conducted as follows. Full length HSA or mouse albumin was immobilized on a Biacore T series CM5 chip at 15 ug/mL in 10 mM acetate buffer (pH 5.0) buffer using standard NHS/EDC coupling, to a surface density of approximately 1000-1100 RU. For off-rate measurements at 25° C., PKE Adnectins were applied as analytes at 500 nM in HBS-P+(0.01 M HEPES pH 7.4, 0.15 M NaCl, 0.005% v/v Surfactant P20) running buffer at a flow rate of 20ul/min for 120 s over the immobilized albumins, followed by 800 s for dissociation. […] Regeneration of the chip surface between cycles was accomplished with two 30 second pulses of 10 mM Glycine, pH 2.0. Kinetic traces of reference-subtracted sensorgrams were fit to a 1:1 binding model for affinity using the Biaevaluation software. Only the dissociation phase was fit for determination of off-rates.

[2] = target: T2, mouse serum albumin (MSA), full length (mouse, UniProt P07724 25-608); assay: SPR off-rate, immobilized MSA, 500 nM Adnectin, 25 C
T2 construct: mature; Immobilized on CM5 chip (SPR) or coated on plates (ELISA); also called mouse albumin; murine serum albumin
Procedure: as §1

[3] = target: T1, human serum albumin (HSA), full length; assay: SPR, immobilized HSA, 500 nM Adnectin, 25 C
Procedure: as §1

[4] = target: T1, human serum albumin (HSA), full length; assay: SPR off-rate, immobilized HSA, 500 nM Adnectin, 25 C
Procedure: as §1

[5] = target: T2, mouse serum albumin (MSA), full length; assay: SPR off-rate ratio to parent ADX_7016_A01, MSA, 25 C
Procedure: as §1

[6] = target: T2, mouse serum albumin (MSA), full length; assay: SPR, immobilized MSA, 500 nM Adnectin, 25 C
Procedure: as §1

[7] = target: T1, human serum albumin (HSA), full length; assay: SPR off-rate, immobilized HSA, 500 nM Adnectin, 25 C; remark: listed apart in the source
Procedure: as §1

[8] = target: T2, mouse serum albumin (MSA), full length; assay: SPR off-rate ratio to parent ADX_7016_A01, MSA, 25 C; remark: listed apart in the source
Procedure: as §1

[9] = target: T2, mouse serum albumin (MSA), full length; assay: SPR off-rate, immobilized MSA, 500 nM Adnectin, 25 C; remark: listed apart in the source
Procedure: as §1

[10] = target: T2, mouse serum albumin (MSA), full length; assay: direct binding ELISA, coated MSA, anti-His-HRP; parameters: unit not given here
Procedure: (§2) Direct binding ELISA assays were conducted as follows. Full length human and murine serum albumin at 10ug/ml in PBS were coated on Nunc Maxisorp plates overnight at 4° C. Plates were blocked in casein/PBS buffer. PKE Adnectins were allowed to bind over a 4-point concentration range of 0.032-4 uM for HSA and 0.008-1 uM for MSA. Bound Adnectin was detected by anti-His antibody conjugated with HRP (horseradish peroxidase) diluted 1:1500 in casein/PBS. Plates were developed with TMB substrate and absorbance read at 450 nm. Adnectins were binned as high, medium and low affinity binders based on the observed Ymax of the concentration response curves.

[11] = target: T1, human serum albumin (HSA), full length; assay: SPR off-rate ratio to parent ADX_7016_A01, HSA, 25 C; remark: listed apart in the source
Procedure: as §1

[12] = target: T1, human serum albumin (HSA), full length; assay: direct binding ELISA, coated HSA, anti-His-HRP; parameters: unit not given here
Procedure: as §2

T1 sequence (P02768 25-609): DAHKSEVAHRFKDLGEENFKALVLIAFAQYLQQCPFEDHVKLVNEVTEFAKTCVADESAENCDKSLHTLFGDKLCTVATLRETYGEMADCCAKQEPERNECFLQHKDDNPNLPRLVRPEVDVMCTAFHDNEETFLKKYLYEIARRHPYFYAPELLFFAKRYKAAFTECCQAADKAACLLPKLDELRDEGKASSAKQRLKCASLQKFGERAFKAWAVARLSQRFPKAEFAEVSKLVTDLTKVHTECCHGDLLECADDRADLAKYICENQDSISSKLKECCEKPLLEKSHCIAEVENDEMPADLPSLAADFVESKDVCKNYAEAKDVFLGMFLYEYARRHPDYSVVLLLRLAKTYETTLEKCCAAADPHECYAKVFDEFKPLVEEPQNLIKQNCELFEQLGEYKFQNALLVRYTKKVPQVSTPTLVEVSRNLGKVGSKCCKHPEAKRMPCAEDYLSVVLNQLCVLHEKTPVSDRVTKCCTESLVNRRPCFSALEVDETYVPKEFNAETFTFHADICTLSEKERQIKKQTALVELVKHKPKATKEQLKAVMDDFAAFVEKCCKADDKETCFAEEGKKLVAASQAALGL

Row | Binder | HSA kd/Parent kd [1] | koff [2] [s⁻¹] | HSA Binding (RU) [3] [RU] | koff [4] [s⁻¹] | MSA kd/Parent kd [5] | MSA Binding (RU) [6] [RU] | koff [7] [s⁻¹] | MSA kd/Parent kd [8] | koff [9] [s⁻¹] | MSA DB ELISA (OD450) Ymax obs [10] | MSA DB ELISA (OD450) Ymin obs [10] | HSA kd/Parent kd [11] | HSA DB ELISA (OD450) Ymax obs [12] | HSA DB ELISA (OD450) Ymin obs [12]
1 | ADX_6727_A07 (Y44S/K85T) (designed binder, Full His6-tagged entry) MGVSDVPRDLEVVAATPTSLLISWDAPAVTVRYYRITYGREVQKYSDLGPLYISQEFTVPGSKSTATISGLKPGVDYTITVYAVTGSGESPASSTPISINYRTEIDKPSQHHHHHH | 4.8 | 0.00222 | 28 | 0.00129 | 5.2 | 56 | – | – | – | – | – | – | – | –
2 | ADX_6727_B04 (Y35S/K85S) (designed binder, Full His6-tagged entry) MGVSDVPRDLEVVAATPTSLLISWDAPAVTVRYYRITYGREVQKSSDLGPLYIYQEFTVPGSKSTATISGLKPGVDYTITVYAVTGSGESPASSSPISINYRTEIDKPSQHHHHHH | 4.1 | 0.00142 | 23 | 0.0011 | 3.3 | 62 | 0.0011 | 3.3 | 0.00142 | 95 | 74 | 4.1 | 99 | 62
3 | ADX_6727_D06 (Y44A/K85S) (designed binder, Full His6-tagged entry) MGVSDVPRDLEVVAATPTSLLISWDAPAVTVRYYRITYGREVQKYSDLGPLYIAQEFTVPGSKSTATISGLKPGVDYTITVYAVTGSGESPASSSPISINYRTEIDKPSQHHHHHH | – | – | – | – | – | – | 0.00546 | 14.5 | 0.00622 | 85 | 1 | 20 | 67 | 8
4 | ADX_6727_D10 (Q33D/K85T) (designed binder, Full His6-tagged entry) MGVSDVPRDLEVVAATPTSLLISWDAPAVTVRYYRITYGREVDKYSDLGPLYIYQEFTVPGSKSTATISGLKPGVDYTITVYAVTGSGESPASSTPISINYRTEIDKPSQHHHHHH | – | – | – | – | – | – | 0.0134 | 142 | 0.0608 | 42 | 1 | 50 | 19 | 2
5 | ADX_6727_F03 (I43Y as printed in Table 4; I43A in Table 7) (designed binder, Full His6-tagged entry) MGVSDVPRDLEVVAATPTSLLISWDAPAVTVRYYRITYGREVQKYSDLGPLYAYQEFTVPGSKSTATISGLKPGVDYTITVYAVTGSGESPASSKPISINYRTEIDKPSQHHHHHH | – | – | – | – | – | – | 0.00468 | 8.9 | 0.0038 | 67 | 2 | 17 | 89 | 9
6 | ADX_6727_F04 (Y44A/K85A) (designed binder, Full His6-tagged entry) MGVSDVPRDLEVVAATPTSLLISWDAPAVTVRYYRITYGREVQKYSDLGPLYIAQEFTVPGSKSTATISGLKPGVDYTITVYAVTGSGESPASSAPISINYRTEIDKPSQHHHHHH | – | – | – | – | – | – | 0.00624 | 16.2 | 0.00694 | 77 | 2 | 23 | 56 | 6
7 | ADX_6727_F06 (L41A/K85T) (designed binder, Full His6-tagged entry) MGVSDVPRDLEVVAATPTSLLISWDAPAVTVRYYRITYGREVQKYSDLGPAYIYQEFTVPGSKSTATISGLKPGVDYTITVYAVTGSGESPASSTPISINYRTEIDKPSQHHHHHH | – | – | – | – | – | – | 0.00298 | 12.8 | 0.0055 | 91 | 4 | 11 | 90 | 19
8 | ADX_6727_F07 (Y44S/K85A) (designed binder, Full His6-tagged entry) MGVSDVPRDLEVVAATPTSLLISWDAPAVTVRYYRITYGREVQKYSDLGPLYISQEFTVPGSKSTATISGLKPGVDYTITVYAVTGSGESPASSAPISINYRTEIDKPSQHHHHHH | 6.5 | 0.00277 | 35 | 0.00176 | 6.5 | 62 | – | – | – | – | – | – | – | –
9 | ADX_6727_F10 (Y35A/K85T) (designed binder, Full His6-tagged entry) MGVSDVPRDLEVVAATPTSLLISWDAPAVTVRYYRITYGREVQKASDLGPLYIYQEFTVPGSKSTATISGLKPGVDYTITVYAVTGSGESPASSTPISINYRTEIDKPSQHHHHHH | 4 | 0.00156 | 22 | 0.00109 | 3.6 | 55 | – | – | – | – | – | – | – | –
10 | ADX_6727_G01 (L41A) (designed binder, Full His6-tagged entry) MGVSDVPRDLEVVAATPTSLLISWDAPAVTVRYYRITYGREVQKYSDLGPAYIYQEFTVPGSKSTATISGLKPGVDYTITVYAVTGSGESPASSKPISINYRTEIDKPSQHHHHHH | – | – | – | – | – | – | 0.0037 | 14.9 | 0.00639 | 87 | 3 | 14 | 79 | 12
11 | ADX_6727_G04 (Y44S/K85S) (designed binder, Full His6-tagged entry) MGVSDVPRDLEVVAATPTSLLISWDAPAVTVRYYRITYGREVQKYSDLGPLYISQEFTVPGSKSTATISGLKPGVDYTITVYAVTGSGESPASSSPISINYRTEIDKPSQHHHHHH | 6.6 | 0.00259 | 28 | 0.00177 | 6 | 56 | – | – | – | – | – | – | – | –
12 | ADX_6727_G05 (I43S/K85A) (designed binder, Full His6-tagged entry) MGVSDVPRDLEVVAATPTSLLISWDAPAVTVRYYRITYGREVQKYSDLGPLYSYQEFTVPGSKSTATISGLKPGVDYTITVYAVTGSGESPASSAPISINYRTEIDKPSQHHHHHH | – | – | – | – | – | – | 0.0143 | 27 | 0.0116 | 32 | 1 | 53 | 38 | 2
13 | ADX_6727_G06 (Y35A/K85S) (designed binder, Full His6-tagged entry) MGVSDVPRDLEVVAATPTSLLISWDAPAVTVRYYRITYGREVQKASDLGPLYIYQEFTVPGSKSTATISGLKPGVDYTITVYAVTGSGESPASSSPISINYRTEIDKPSQHHHHHH | 3.9 | 0.00143 | 26 | 0.00105 | 3.3 | 66 | – | – | – | – | – | – | – | –
14 | ADX_6727_H02 (I43S) (designed binder, Full His6-tagged entry) MGVSDVPRDLEVVAATPTSLLISWDAPAVTVRYYRITYGREVQKYSDLGPLYSYQEFTVPGSKSTATISGLKPGVDYTITVYAVTGSGESPASSKPISINYRTEIDKPSQHHHHHH | – | – | – | – | – | – | 0.0139 | 22.8 | 0.00977 | 39 | 1 | 52 | 37 | 2
